Here are results for two molecules from patent US20100254977A1.

For assay [1], the target named is human αv-integrins (human) (UniProt P06756). In words: cell-based or functional assay.
For assay [2], the target named is human αv-integrins (human), P06756. In words: cell-based or functional assay.
human αv-integrins (human), P06756, sequence (P06756 31-1048): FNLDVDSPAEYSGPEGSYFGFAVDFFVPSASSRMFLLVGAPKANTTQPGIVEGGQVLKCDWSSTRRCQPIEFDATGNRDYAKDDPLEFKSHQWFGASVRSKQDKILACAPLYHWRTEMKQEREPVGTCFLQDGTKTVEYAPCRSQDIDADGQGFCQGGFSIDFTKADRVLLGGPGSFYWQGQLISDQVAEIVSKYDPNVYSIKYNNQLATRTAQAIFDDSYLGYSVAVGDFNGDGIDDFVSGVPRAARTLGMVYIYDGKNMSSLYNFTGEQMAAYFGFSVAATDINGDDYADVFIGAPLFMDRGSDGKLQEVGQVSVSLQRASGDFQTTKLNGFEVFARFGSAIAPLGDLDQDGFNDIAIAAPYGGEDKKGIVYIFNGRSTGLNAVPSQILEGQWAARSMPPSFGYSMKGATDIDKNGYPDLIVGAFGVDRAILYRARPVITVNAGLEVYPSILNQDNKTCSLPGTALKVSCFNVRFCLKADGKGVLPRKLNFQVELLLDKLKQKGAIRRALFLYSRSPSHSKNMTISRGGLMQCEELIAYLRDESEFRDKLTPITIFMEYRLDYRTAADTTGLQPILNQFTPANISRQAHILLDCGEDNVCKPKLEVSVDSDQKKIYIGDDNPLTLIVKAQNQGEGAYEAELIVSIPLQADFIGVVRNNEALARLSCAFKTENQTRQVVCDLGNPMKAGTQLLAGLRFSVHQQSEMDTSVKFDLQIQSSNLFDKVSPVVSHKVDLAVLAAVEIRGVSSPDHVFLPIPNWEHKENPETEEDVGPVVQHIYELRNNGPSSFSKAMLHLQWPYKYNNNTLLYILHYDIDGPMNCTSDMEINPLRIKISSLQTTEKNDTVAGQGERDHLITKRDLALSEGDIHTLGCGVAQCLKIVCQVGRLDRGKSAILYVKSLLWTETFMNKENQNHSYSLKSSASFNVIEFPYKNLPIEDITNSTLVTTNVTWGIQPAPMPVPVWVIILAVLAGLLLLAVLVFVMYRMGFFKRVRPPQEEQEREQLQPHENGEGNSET

human αv-integrins (human), sequence (P06756 31-1048): as above

Consider DI-17E6 (antibody), for which, in assay [1], the EC50, blocking of VEGF-induced migration of human endothelial cells on vitronectin was found to be 50 nM; the EC50, blocking of tumor cell adhesions lay within 0.1 to 50 nM; the EC50, inhibition of human endothelial cell adhesion to vitronectin came out at 10 nM; the IC50, growth of HUVEC on vitronectin (Alamar Blue) came to 4 ng/mL.

B1: mouse mAb 17E6 (antibody, mouse IgG1, V domains shown)
VH: EPKSSDKTHTCPPCP
VL: WGQGTTVTVSS
B1 gave an IC50, growth of HUVEC on vitronectin (Alamar Blue) in assay [2] of 5 ng/mL.
